Test results taken from patent CN115947850A (BEIJING DONGFANG BIOTECH CO LTD, dated 2023).

Columns and labels:
LILRA6 = LILRA6 (UniProt Q6PI73 24-447, limits assumed); experiment: ELISA, coated LILR protein 100 ng/well
LILRB2 = LILRB2 (UniProt Q8N423 22-460, limits assumed); experiment: ELISA, coated LILR protein 100 ng/well
LILRA5 = LILRA5 (UniProt A6NI73 42-268, limits assumed); experiment: ELISA, coated LILR protein 100 ng/well
LILRB5 = LILRB5 (UniProt O75023 24-458, limits assumed); experiment: ELISA, coated LILR protein 100 ng/well
LILRA4 = LILRA4 (UniProt P59901 24-446, limits assumed); experiment: ELISA, coated LILR protein 100 ng/well
LILRB1 = LILRB1 (UniProt Q8NHL6 24-461, limits assumed); experiment: ELISA, coated LILR protein 100 ng/well
LILRA1 = LILRA1 (UniProt O75019 17-461, limits assumed); experiment: ELISA, coated LILR protein 100 ng/well
LILRA3 = LILRA3 (UniProt Q8N6C8 24-439); experiment: ELISA, coated LILR protein 100 ng/well
LILRA2 = LILRA2 (UniProt Q8N149 24-449, limits assumed); experiment: ELISA, coated LILR protein 100 ng/well
LILRB3 = LILRB3 (UniProt O75022 24-443, limits assumed); experiment: ELISA, coated LILR protein 100 ng/well
[1] = molecular target: T1, LILRB4 on the surface of human monocytic leukemia cells (THP-1) (human, UniProt Q8NHJ6 22-448); experiment: cell-based or functional assay
[2] = molecular target: T2, human LILRB4 extracellular domain (LILRB4抗原, LILRB4蛋白胞外段) (human, UniProt Q8NHJ6 22-259); experiment: ELISA, coated LILRB4 100 ng/well, goat anti-mouse IgG-HRP detection
T2 construct: extracellular domain; also called 人LILRB4

[3] = molecular target: T1, LILRB4 on the surface of human …; experiment: flow cytometry on THP-1 cells, FITC goat anti-mouse IgG detection
[4] = molecular target: T1, LILRB4 on the surface of human …; experiment: flow cytometry competition on THP-1 cells; competitor FITC-labelled ApoE at 0.4 μg/mL

LILRA4, sequence (P59901 24-446 limits assumed): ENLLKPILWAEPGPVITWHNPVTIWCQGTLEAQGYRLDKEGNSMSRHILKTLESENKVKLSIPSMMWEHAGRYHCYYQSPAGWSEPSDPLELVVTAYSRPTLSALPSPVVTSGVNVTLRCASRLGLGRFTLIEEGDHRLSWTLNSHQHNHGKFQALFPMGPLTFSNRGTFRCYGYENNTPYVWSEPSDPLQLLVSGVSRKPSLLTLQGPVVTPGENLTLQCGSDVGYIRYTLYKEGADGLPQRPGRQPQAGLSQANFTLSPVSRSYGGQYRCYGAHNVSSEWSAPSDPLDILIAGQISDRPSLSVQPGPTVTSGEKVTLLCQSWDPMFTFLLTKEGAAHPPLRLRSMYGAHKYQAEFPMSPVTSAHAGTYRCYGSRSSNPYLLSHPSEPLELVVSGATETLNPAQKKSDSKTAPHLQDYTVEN
LILRA1, sequence (O75019 17-461 limits assumed): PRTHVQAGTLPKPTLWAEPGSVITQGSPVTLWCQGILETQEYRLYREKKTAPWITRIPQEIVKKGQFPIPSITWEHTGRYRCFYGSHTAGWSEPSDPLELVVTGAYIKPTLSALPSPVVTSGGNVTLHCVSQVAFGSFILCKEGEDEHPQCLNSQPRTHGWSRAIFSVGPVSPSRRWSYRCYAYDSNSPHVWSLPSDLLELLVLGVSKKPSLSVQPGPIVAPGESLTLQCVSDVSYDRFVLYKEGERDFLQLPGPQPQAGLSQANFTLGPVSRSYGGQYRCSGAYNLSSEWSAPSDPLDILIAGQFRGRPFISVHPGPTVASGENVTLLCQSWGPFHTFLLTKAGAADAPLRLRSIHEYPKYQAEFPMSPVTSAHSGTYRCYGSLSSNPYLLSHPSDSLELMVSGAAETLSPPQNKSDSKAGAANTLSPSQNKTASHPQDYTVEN
LILRB2, sequence (Q8N423 22-460 limits assumed): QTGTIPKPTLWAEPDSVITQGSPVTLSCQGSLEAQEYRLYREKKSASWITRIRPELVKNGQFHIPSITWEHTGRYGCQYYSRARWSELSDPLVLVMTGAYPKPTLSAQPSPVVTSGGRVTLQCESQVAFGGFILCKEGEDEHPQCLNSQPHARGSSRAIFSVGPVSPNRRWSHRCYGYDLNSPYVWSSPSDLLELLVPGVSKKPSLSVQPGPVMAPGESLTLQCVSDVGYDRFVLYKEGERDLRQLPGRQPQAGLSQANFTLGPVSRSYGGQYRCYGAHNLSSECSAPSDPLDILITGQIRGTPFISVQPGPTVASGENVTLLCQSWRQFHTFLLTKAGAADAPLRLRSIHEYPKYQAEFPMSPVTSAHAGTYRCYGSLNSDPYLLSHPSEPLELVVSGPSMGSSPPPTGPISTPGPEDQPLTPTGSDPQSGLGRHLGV
LILRB5, sequence (O75023 24-458 limits assumed): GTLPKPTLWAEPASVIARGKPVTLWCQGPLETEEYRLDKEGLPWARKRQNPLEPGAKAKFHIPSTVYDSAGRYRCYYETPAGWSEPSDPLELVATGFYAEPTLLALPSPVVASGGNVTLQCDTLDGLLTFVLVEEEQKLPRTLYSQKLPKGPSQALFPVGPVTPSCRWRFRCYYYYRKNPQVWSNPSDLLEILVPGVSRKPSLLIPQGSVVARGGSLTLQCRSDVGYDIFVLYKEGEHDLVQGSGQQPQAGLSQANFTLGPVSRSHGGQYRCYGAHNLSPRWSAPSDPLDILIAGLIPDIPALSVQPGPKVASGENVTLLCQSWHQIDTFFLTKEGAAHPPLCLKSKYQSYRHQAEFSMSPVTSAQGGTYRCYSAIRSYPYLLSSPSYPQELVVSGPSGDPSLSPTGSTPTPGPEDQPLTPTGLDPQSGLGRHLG
LILRA6, sequence (Q6PI73 24-447 limits assumed): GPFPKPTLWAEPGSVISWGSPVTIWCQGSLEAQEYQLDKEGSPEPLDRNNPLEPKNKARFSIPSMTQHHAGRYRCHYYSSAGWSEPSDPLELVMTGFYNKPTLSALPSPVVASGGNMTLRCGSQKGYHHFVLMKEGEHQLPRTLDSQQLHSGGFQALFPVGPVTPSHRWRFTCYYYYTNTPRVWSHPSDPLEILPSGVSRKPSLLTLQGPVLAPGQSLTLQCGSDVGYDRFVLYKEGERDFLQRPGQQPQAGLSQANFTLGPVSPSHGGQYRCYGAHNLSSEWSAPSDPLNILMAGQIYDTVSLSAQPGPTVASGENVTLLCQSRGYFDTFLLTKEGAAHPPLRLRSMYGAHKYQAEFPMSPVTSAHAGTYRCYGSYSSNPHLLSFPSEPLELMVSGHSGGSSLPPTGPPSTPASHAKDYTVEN
LILRA5, sequence (A6NI73 42-268 limits assumed): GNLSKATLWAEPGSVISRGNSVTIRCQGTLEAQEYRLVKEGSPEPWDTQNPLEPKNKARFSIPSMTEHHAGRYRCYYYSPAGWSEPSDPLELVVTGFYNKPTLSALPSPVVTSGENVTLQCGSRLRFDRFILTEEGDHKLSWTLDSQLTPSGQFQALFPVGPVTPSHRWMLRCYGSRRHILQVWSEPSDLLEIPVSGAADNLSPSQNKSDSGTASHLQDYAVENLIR
LILRB3, sequence (O75022 24-443 limits assumed): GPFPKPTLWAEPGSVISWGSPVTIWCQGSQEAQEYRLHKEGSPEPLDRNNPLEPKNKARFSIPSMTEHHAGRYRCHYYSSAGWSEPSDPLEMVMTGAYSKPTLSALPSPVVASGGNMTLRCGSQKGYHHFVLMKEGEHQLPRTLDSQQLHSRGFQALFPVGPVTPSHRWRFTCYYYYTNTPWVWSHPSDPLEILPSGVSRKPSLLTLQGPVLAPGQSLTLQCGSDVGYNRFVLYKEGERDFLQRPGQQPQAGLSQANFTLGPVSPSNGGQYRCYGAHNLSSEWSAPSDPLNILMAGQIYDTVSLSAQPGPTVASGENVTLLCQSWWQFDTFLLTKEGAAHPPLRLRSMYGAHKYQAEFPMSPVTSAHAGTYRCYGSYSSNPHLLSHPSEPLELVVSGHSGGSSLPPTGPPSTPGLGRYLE
LILRB1, sequence (Q8NHL6 24-461 limits assumed): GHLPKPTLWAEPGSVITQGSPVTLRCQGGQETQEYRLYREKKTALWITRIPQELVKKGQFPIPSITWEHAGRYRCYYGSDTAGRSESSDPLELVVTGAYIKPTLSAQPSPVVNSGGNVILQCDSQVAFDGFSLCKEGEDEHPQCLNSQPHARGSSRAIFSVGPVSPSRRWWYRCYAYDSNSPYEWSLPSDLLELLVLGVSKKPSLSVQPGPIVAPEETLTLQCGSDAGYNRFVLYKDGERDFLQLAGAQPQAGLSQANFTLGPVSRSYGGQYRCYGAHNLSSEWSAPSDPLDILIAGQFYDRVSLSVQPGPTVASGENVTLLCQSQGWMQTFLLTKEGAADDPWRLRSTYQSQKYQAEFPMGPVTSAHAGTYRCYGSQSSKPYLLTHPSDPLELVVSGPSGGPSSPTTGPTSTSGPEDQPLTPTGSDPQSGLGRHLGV
LILRA3, sequence (Q8N6C8 24-439 limits assumed): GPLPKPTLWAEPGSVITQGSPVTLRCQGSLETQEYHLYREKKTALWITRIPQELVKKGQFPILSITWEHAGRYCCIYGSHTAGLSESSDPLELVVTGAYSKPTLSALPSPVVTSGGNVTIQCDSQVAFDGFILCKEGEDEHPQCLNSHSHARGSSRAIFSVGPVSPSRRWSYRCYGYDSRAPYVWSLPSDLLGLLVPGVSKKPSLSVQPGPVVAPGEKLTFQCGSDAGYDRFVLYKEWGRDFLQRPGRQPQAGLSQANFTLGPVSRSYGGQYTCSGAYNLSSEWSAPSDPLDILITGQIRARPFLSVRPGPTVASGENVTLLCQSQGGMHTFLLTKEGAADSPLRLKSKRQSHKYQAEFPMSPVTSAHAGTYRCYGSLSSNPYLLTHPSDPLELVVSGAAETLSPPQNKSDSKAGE
LILRA2, sequence (Q8N149 24-449 limits assumed): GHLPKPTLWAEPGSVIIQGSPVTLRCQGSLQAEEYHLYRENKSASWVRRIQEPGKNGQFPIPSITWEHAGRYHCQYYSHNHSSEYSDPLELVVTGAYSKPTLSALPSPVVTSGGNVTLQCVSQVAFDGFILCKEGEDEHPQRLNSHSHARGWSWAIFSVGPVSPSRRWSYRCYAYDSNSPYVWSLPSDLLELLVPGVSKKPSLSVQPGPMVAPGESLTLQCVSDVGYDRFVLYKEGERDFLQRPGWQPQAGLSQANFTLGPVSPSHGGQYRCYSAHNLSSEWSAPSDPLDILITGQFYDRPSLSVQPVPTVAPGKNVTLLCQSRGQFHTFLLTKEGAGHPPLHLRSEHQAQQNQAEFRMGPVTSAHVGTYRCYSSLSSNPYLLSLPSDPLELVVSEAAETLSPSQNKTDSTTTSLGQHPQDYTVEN

binding result (LILRA6): no binding (tested: 50μg/mL)
binding result (LILRB2): no binding (tested: 50μg/mL)
binding result (LILRA5): no binding (tested: 50μg/mL)
binding result (LILRB5): no binding (tested: 50μg/mL)
binding result (LILRA4): no binding (tested: 50μg/mL)
binding result (LILRB1): no binding (tested: 50μg/mL)
binding result (LILRA1): no binding (tested: 50μg/mL)
binding result (LILRA3): no binding (tested: 50μg/mL)
binding result (LILRA2): no binding (tested: 50μg/mL)
binding result (LILRB3): no binding (tested: 50μg/mL)
IC50 of inhibition of ARG1 secretion by THP-1 cells in the presence of ApoE (arginase activity kit) [1]: 330 µg/mL
EC50 [2]: 0.375 µg/mL
EC50 [3]: 5.48 µg/mL
IC50 [4]: 9.69 µg/mL
B1: ME-Ⅰ anti-LILRB4 monoclonal antibody (mouse IgG1 / Cκ) (antibody, V domains shown)
VH: EVQLEQSGAEVVKPGASVKLSCKASGYTFISYWMHWVKQRPGQGLEWIGEINPTNGRTNYNEKFKSKATLTVDKSSGTAYMQLSSLTSEDSAVYYCARWGQLGLREGYYAVDYWGQGTSVTVSS
VL: DIVLTQSPSSLSASLGDRVTISCRASQDISNYLNWYQQNPNGTVKLLIYYTSRLHSGVPSRFSGSGSGTDYSLTISNLEQEDIATYFCQQGDTLPPTFGGGTKLEIKA
notes: also called 单克隆抗体ME-Ⅰ; ME-Ⅰ抗LILRB4单克隆抗体
